# Earlier results, collected in doi:10.1101/2024.11.09.622800.
# Like-named read-outs stand apart in the source and are kept apart here.
# Assays:
# [1] = target: Asp85 (UniProt position 98, WARYADWLFTT)
# [2] = target: Lys132 (UniProt position 214, KSEAQKKKEKL); test: stability
# [3] = target: Glu172 (UniProt position 200, QVMATEGYQSS)
# [4] = target: Cys48 (UniProt position 48, SLKASCLYGQL)
# [5] = target: Asp118 (UniProt position 200, YVYKPDNTHEQ); test: stability
# [6] = target: Asp75 (UniProt position 122, TWREADINYTS)
# [7] = target: Asp41 (UniProt position 123, LLLVDDPETKH); test: stability
# [8] = target: Asp26 (UniProt position 26, KLVVVDFSATW)
# [9] = target: Glu325 (UniProt position 325, TLHMFEVPFLL)
substance,measurement,setting,value
Bacteriorhodopsin (Halobacterium salinarum (not stated in the article)),pKa,[1]; conformational state associated by the authors with PDB 1IW6,7.2
same,pKa,[1]; conformational state associated by the authors with PDB 1UCQ (retinal forms a salt bridge with Asp85),2.6
Staphylococcal nuclease (SNase) A132K variant (Staphylococcus aureus; A132K),pKa,[2],10.4
"Xylanase (endo-1,4-beta-xylanase), wild type (Bacillus circulans (not stated in the article))",pKa,[3],6.7
Glutathione S-transferase (PDB 5X79),pKa,[4],3.7
Staphylococcal nuclease (SNase) N118D variant (Staphylococcus aureus; N118D),pKa,[5],7.0
Barnase (Bacillus amyloliquefaciens (not stated in the article)),pKa,[6],3.1
"Xylanase, mutant with Glu78 covalently linked to substrate (PDB 3VZO) (Bacillus circulans (not stated in the article); not stated (the article says only that 'another nearby residue is mutated'))",pKa,"[3]; Glu78 covalently linked to substrate (covalent intermediate), nearby residue mutated",2.8
Staphylococcal nuclease (SNase) T41D variant (Staphylococcus aureus; T41D),pKa,[7],∼4
Thioredoxin (Homo sapiens),pKa,[8]; oxidized,8.1
same,pKa,[8]; reduced,9.9
Lactose permease LacY (Escherichia coli (not stated in the article)),pKa,[9],10.5
